Laboratory results: patent US20060280804A1

Molecular target: angiotensin converting enzyme (ACE, EC 3.4.15.1, Sigma)
Experiment: cell-based or functional assay

- ACEI activity, IC50: > 750 µg/mL
Substance: ovalbumin grade VI (99% purity, Sigma), unhydrolysed (from UniProt P01012 2-386)
